Experimental findings from article PMC8273888 are described below.

Series [1] relates to [H][C@]12SCC(CSC(C(=O)O)c3ccccc3)=C(C(=O)O)N1C(=O)[C@H]2NC(=O)Cc1ccccc1. Put plainly: purified protein, by the assay type. The settings on record: pH 7.2, 25.0 °C.
The test system of series [2] is [H][C@]12SCC(CS[C@H](Cc3ccccc3)C(=O)O)=C(C(=O)O)N1C(=O)[C@H]2NC(=O)Cc1ccccc1. Put plainly: purified protein, by the assay type. The settings on record: pH 7.2, 25.0 °C.
[3] abbreviates: other: compound as substrate of NDM-1.
Setting [4] is: other: compound as substrate of VIM-2.

Consider NDM-1 (Klebsiella pneumoniae), for which, in series [1] (setting [3]), the Michaelis-Menten constant (Km) – broadly, the substrate concentration at which the rate is half of its maximum – was 14.0 ± 2 µM; the kcat (usually the number of substrate molecules converted per active site and unit of time at saturation) was 13.1 s⁻¹; the kcat/Km (commonly the second-order rate constant that governs catalysis at low substrate concentration) was found to be 936000 M⁻¹ s⁻¹. For the same substance, in series [2] (setting [3]), the Km is 21.2 ± 4 µM, the kcat is 17.4 s⁻¹ and the kcat/Km was determined as 821000 M⁻¹ s⁻¹.
Take VIM-2 (Escherichia coli): in series [1] (setting [4]), the Km came to 8.28 ± 2 µM, the kcat is 4.06 s⁻¹ and the specificity constant (kcat/Km) came out at 490000 M⁻¹ s⁻¹. In series [2] (setting [4]), the Km stood at 4.30 ± 1 µM, the kcat is 2.35 s⁻¹ and the kcat/Km is 546000 M⁻¹ s⁻¹.
